Assay results from patent publication US20240425593A1 (SICHUAN KELUN BIOTECH BIOPHARMACEUTICAL, published 2024).

T1: monkey PD-1-hFc (monkey)
T1 construct: Extracellular domain of monkey PD-1 fused to an hFc tag, made in house; not shown: The hFc tag and any linker
T1 chain: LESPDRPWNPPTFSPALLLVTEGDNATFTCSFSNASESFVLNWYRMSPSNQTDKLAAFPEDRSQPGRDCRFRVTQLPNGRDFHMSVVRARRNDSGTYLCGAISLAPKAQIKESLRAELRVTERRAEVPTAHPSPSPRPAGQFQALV


What was measured:
[1] = target: T2, PD-1 on Jurkat-PD-1-NFAT cells (UniProt Q15116 25-288, limits assumed); assay: cell-based or functional assay
human PD-1-His [2] = target: T3, human PD-1-His (human, UniProt Q15116 25-170); assay: ELISA, coated human PD-1-his
T3 construct: extracellular domain; not shown: His tag
Description: (§1) To verify the affinity of the humanized PD-1 antibody to PD-1-His antigen, ELISA was employed. The specific experimental steps were as follows: human PD-1-his was diluted to 1 μg/mL with CBS solution, then coated on a 96-well ELISA plate (purchased from Guangzhou Jiete Bio) at 4° C. overnight. […] After washing, a goat anti-mouse secondary antibody (FC) labeled with horseradish peroxidase diluted in phosphate buffer (PBS) containing 2% BSA in a ratio of 1:15000 was added, followed by incubating at 37° C. for 1 hour. After washing, the TMB chromogen solution was used for developing, and the absorbance value was read using a microplate reader at 450 nm. The data were imported into Graphprism to calculate EC₅₀ values.

human PD-1-hFc [3] = target: T4, human PD-1-hFc (human, UniProt Q15116 25-170); assay: competitive ELISA, coated PD-1-hFc, competitor PDL1-mFc
T4 construct: extracellular domain; Extracellular domain of human PD-1 fused to an hFc tag, made in house; not shown: hFc tag
Description: (§2) The specific experimental steps were as follows: human PD-1-hFc was diluted to 1 μg/mL with CBS solution, coated on a 96-well ELISA plate (purchased from Guangzhou Jiete Bio) at 4° C. overnight. After washing, 100 μL of phosphate buffer (PBS) containing 2% BSA was used for blocking at 37° C. for 1 hour. […] After washing, a goat anti-mouse secondary antibody labeled with HRP diluted in phosphate buffer (PBS) containing 2% BSA in a ratio of 1:15000 was added, followed by incubating at room temperature for 1 hour. After washing, the TMB chromogen solution was used for developing, and the absorbance value was read using a microplate reader at 450 nm, and the data were imported into Graphprism to calculate ICs values.

human PD-1-hFc [4] = target: T4, human PD-1-hFc; assay: competitive ELISA, coated PD-1-hFc, competitor PDL2-mFc
Description: as §2

human PD-1-His [5] = target: T3, human PD-1-His; assay: BLI (Octet ForteBio), antibody on ProA biosensor, PD-1-His in solution
[6] = target: T2, PD-1 on Jurkat-PD-1-NFAT cells; assay: cell-based or functional assay; remark: listed apart in the source
monkey PD-1-hFc = target: T1, monkey PD-1-hFc; assay: ELISA, coated monkey PD-1-hFc
Description: as §1, with “The” for “To verify the affinity of the humanized PD-1 antibody to PD-1-His antigen, ELISA was employed. The”, “PD-1-hFc and monkey PD-1-hFc antigens were” for “PD-1-his was”, “anti-human” for “anti-mouse”, “nm, and the” for “nm. The”

human PD-1-His [7] = target: T3, human PD-1-His; assay: BLI (Octet ForteBio), human PD-1-His
[8] = target: T5, full-length human PD-1 on CHO-hPD-1 cells (human, UniProt Q15116 25-288); assay: competitive FACS on CHO-hPD-1 cells, competitor PD-L1-mFc-Bio
T5 construct: whole, on cells; also called PD-1 on the cell membrane surface of CHO-hPD-1
Text: The data were imported into Graphprism to calculate IC₅₀ values.

human PD-1-hFc [9] = target: T4, human PD-1-hFc; assay: competitive ELISA, coated human PD-1-hFc, competitor hPD-L1-mFc
Description: as §2

human PD-1-hFc [10] = target: T4, human PD-1-hFc; assay: competitive ELISA, coated human PD-1-hFc, competitor hPD-L2-mFc
Description: as §2

human PD-1-His [11] = target: T3, human PD-1-His; assay: BLI (Octet ForteBio), antibody on ProA biosensor, human PD-1-His in solution
human PD-1-ECD-mFc = target: T6, human PD-1-ECD-mFc (human; mouse, UniProt Q15116 25-170); assay: ELISA, coated antigen (column head: Human PD-1-mFc; text of Example 4.2: human PD-1-hFc)
T6 construct: extracellular domain; Made in HEK293F cells; also called human PD-1-mFc; PD-1-mFc; not shown: mouse Fc (mFc) amino acids, AB097847.1
Description: as §1, with “The” for “To verify the affinity of the humanized PD-1 antibody to PD-1-His antigen, ELISA was employed. The”, “PD-1-hFc and monkey PD-1-hFc antigens were” for “PD-1-his was”, “anti-human” for “anti-mouse”, “nm, and the” for “nm. The”

EC50 from the PD-1/PD-L1 luciferase reporter system [1] [nM]	EC50 (human PD-1-His [2]) [nM]	IC50 (human PD-1-hFc [3]) [nM]	IC50 (human PD-1-hFc [4]) [nM]	Kd (human PD-1-His [5]) [nM]	koff (human PD-1-His [5]) [s⁻¹]	kon (human PD-1-His [5]) [M⁻¹ s⁻¹]	EC50 (nM), cell activity for blocking PD-1/PD-L1 binding, luciferase reporter gene assay [6] [nM]	EC50 (monkey PD-1-hFc) [nM]	fold stronger affinity than the control antibody 1 (human PD-1-His [7]) [times]	IC50 [8] [ng/mL]	IC50 (human PD-1-hFc [9]) [nM]	IC50 (human PD-1-hFc [10]) [nM]	Kd (human PD-1-His [11]) [nM]	koff (human PD-1-His [11]) [s⁻¹]	kon (human PD-1-His [11]) [M⁻¹ s⁻¹]	EC50 (human PD-1-ECD-mFc) [nM]	Binder
3.63	0.3	0.94	1.15	1.31	0.000517	395000											humanized antibody 35E6-HZ1 (antibody, human IgG4 S228P, kappa) heavy: not shown light: EIVLTQSPATLSLSPGERATLSCRASESVEYYGTNLMQWYQQKPGQPPRLLIYFASNVASGIPARFSGSGSGTDFTLTISSLEPEDFAVYFCQQSKKVPSTFGQGTKVEIKRTVAAPSVFIFPPSDEQLKSGTASVVCLLNNFYPREAKVQWKVDNALQSGNSQESVTEQDSKDSTYSLSSTLTLSKADYEKHKVYACEVTHQGLSSPVTKSFNRGEC
	0.2	0.88	1.11				5.53	0.198	15.4	1.58	1.6	1.78	0.416	0.000123	296000	0.103	chimeric antibody 35E6-CH (antibody, human IgG4 S228P, kappa, Murine 35E6 variable regions fused to the IgG4 (S228P) heavy chain constant region and the human kappa constant region) heavy: not shown light: CIVLTQSPASLAVSLGQSVTISCRASESVEYYGTNLMQWYQQKPGQPPKLLIYFASNVASGVPARFSGSGSGTDFSLNIHPVEGDDIARYFCQQSKKVPSTFGGGTKLEIKRTVAAPSVFIFPPSDEQLKSGTASVVCLLNNFYPREAKVQWKVDNALQSGNSQESVTEQDSKDSTYSLSSTLTLSKADYEKHKVYACEVTHQGLSSPVTKSFNRGEC
	0.39	1.19	1.25	1.89	0.00053	281000											humanized antibody 91D5-HZ1 (antibody, human IgG4 S228P, kappa, V domains shown) VH: EVQLVQSGAEVKKPGASVKVSCKASGYTFTDYYMNWVREAPGQGLEWMGEINPKYGDTTYAQKLQGRVTLTVDKSTSTAYMELSSLRSDDTAVYYCAKGIRLFDSWGQGTLVTVSS VL: DIQLTQSPSSLSASVGDRVTITCRPSGNVHNYFAWYQQKPGKSPKLLVYNAKTLAEGVPSRFSGSGSGTDYTLTISSLQPEDFATYYCHHYYTAPFTFGGGTKVEIKR
4.47	0.42	1.13	1.22	1.5	0.000472	315000											humanized antibody 91D5-HZ2 (antibody, human IgG4 S228P, kappa) heavy: not shown light: DIQLTQSPSSLSASVGDRVTITCRPSGNVHNYFAWYQQKPGKSPKLLVYNAKTLAEGVPSRFSGSGSGTDYTLTISSLQPEDFATYYCHHYYTAPFTFGGGTKVEIKRTVAAPSVFIFPPSDEQLKSGTASVVCLLNNFYPREAKVQWKVDNALQSGNSQESVTEQDSKDSTYSLSSTLTLSKADYEKHKVYACEVTHQGLSSPVTKSFNRGEC
	0.42	3.11	3.63														humanized antibody 29C6-HZ1 (antibody, human IgG4 S228P, kappa, V domains shown) VH: QVQLVQSGAEVKKPGASVKVSCKTSGYTFTEYTIYWVRQAPGQGLEWIGGINPKNGATLYNQKFQGRVTLTVDKSTSTAYMELRSLRSDDTAVYYCVRDYHGNSHDSMDYWGQGTLVTVSS VL: EIVLTQSPATLSLSPGERATLSCSASSSVSYMHWFQQKPGQAPRLWIYYTSNLASGVPARFSGSGSGTDYTLTISSLEPEDFAVYYCQQRSDYPPTFGGGTKVEIKR
5.74	0.16	0.88	0.95	1.65	0.000454	275000											humanized antibody 29C6-HZ2 (antibody, human IgG4 S228P, kappa, V domains shown) VH: QVQLVQSGVEVKKPGASVKVSCKTSGYTFTEYTIYWVRQAPGQGLEWIGGINPKNGATLYNQKFKVRATLTVDKSTTTAYMELKSLQFDDTAVYYCVRDYHGNSHDSMDYWGQGTTVTVSS VL: EIVLTQSPATLSLSPGERATLSCSASSSVSYMHWFQQKPGQAPRLLIYYTSNLASGVPARFSGSGSGTDYTLTISSLEPEDFAVYYCQQRSDYPPTFGGGTKVEIKR
							8.4	0.171	4.3	0.75	1.12	1.17	1.49	0.000206	138000	0.082	chimeric antibody 14A4-CH (antibody, human IgG4 S228P, kappa, V domains shown, Murine 14A4 variable regions fused to the IgG4 (S228P) heavy chain constant region and the human kappa constant region) VH: EVQLVESGGGLVKPGGSLKLSCAASGFTFSSYGMSWGRQTPEKRLEWVATISGGGSDTYYPDSVKGRFTISRDNVKNNLYLQMSSLRSEDTALYYCARQYGITWFAYWGQGTLVTVSA VL: not shown
	0.17	1.15	1.31	0.516	0.000166	322000	10.7	0.171	7.3	1.7	1.73	1.97	0.88	0.000198	226000	0.115	chimeric antibody 29C6-CH (antibody, human IgG4 S228P, kappa, V domains shown, Murine 29C6 variable regions fused to the IgG4 (S228P) heavy chain constant region and the human kappa constant region) VH: QVQLEESGPELVKPGASVKISCKTSGYTFTEYTIYWVKQSHGKSLEWIGGINPKNGATLYNQKFKVKATLTVDKSSSTAYMELRSLTSEDSAVYYCVRDYHGNSHDSMDYWGQGTSVTVSS VL: QIVLTQSPAIMSASPGEKVTITCSASSSVSYMHWFRQKPGTSPKLWIYYTSNLASGVPAHFSGSGSGTSYSLTISRMEAEDAATYYCQQRSDYPPTFGGGTKLEIKR
	0.29	0.96	1.08	0.547	0.000177	324000	4.41	0.235	11.7	0.96	1.23	1.39	0.549	0.000143	261000	0.09	chimeric antibody 91D5-CH (antibody, human IgG4 S228P, kappa, V domains shown, Murine 91D5 variable regions fused to the IgG4 (S228P) heavy chain constant region and the human kappa constant region) VH: EVQLQQSGPELVKPGASVKISCRASGYTFTDYYMNWVKESHGKSLEWIGEINPKYGDTTYNQKFKDKATLTVDKSSSTASVELRSLTSEDSAVYYCAKGIRLFDSWGQGTTVTVSS VL: DIQLTQSPASLSASVGETVTITCRPSGNVHNYFAWYQQKQGKSPQLLVYNAKTLAEGVPSRFSGSGSGTQYSLKINSLQPEDFGTYYCHHYYTAPFTFGSGTKLEIKR
